# Reference: EP0672680A1 (KYOWA HAKKO KOGYO CO., LTD., dated 1995)
# Ends that are not written are not given here.
# B1: compound (4) (peptide)
# peptide: VYAVTGRGDSPAFGGRIDRI-OH
# modifications: not fully specified (bridges); also: cyclic amide Gly alpha-amino to Asp side chain, places unclear
# B2: compound (5) (peptide)
# peptide: VYAVTGRGDSPAAFGGRIDRIGAA-OH
# modifications: not fully specified (bridges); also: cyclic amide Gly alpha-amino to Asp side chain, places unclear
# B3: compound (3) (peptide)
# peptide: VYAVTGRGDSPASSGCVLS-OH
# modifications: not fully specified (bridges); also: cyclic amide Gly alpha-amino to Asp side chain, places unclear
# Key:
# [1] = biological target: T1, protein-farnesyltransferase derived from bovine brains (bovine, UniProt P29702 2-375; P49355 1-437); test: cell-based or functional assay
# [2] = biological target: T1, protein-farnesyltransferase derived …; test: cell-based or functional assay; remark: listed apart in the source
Binder,"IC50, protein-farnesyltransferase-inhibiting activity (transfer of [3H]-farnesyl diphosphate to v-Ki-Ras p21) [1]","IC50, protein-farnesyltransferase inhibiting activity in SPA enzyme assay kit (intake of [3H]-farnesyl diphosphate by biotin-lamin-B peptide) [2]"
B1,9 µM,
B2,19 µM,
B3,0.56 µM,0.42 µM
